Assay results published in the DeepSol protein solubility set.

Assay: soluble on expression in E. coli; label from the status in PepcDB or PDB records

Sequence	soluble on expression in E. coli
MVAWSIVDYGSGDEVPGADAALVLGAAAWGNKPSPVFRERINHAVKLYQSGKVRWIVFTGGTPEPGYPAEADVGREFAARQGVPMTAMLVENQSRTTWQNLSNARDLGNQFGIRSYLLVSDPLHMRRAVLMAGDLGLRAYPAPTQSSRFRTLASWSRFLARETWLYVGYRVFRQLSLEHHHHHH	not soluble
MVCGKKRVGEELRCKSCGSPFEIRTGFHYRENIEDNFPYIKNMISLGESETPIFHGDDFDLKLDYMLPTFSYKDRGSRILISHIADIRDSYGITRISEDSSGNAGASIAAYGSAAGLAVDIYVPETVAGRKFSQIQAYGANVIKVKGSREDVQSAAERSESFYASHVLRPEFRDGIRTLAYEIYRQYDRMPRNIYIPVSAGTLLLGLYSGLRHLMESGEIAEMPAIVAVQTEAVSPLCAKINGLNYDPDNKLSSIADALVSRKPVLLQKMYQVISEYGRCMTVSDDEIIEARNRLAKKGFLVEYSSATVYAAFRKKPQENSLLVLTGSGLKNDS	not soluble
MVCISRFLPVKGVQNINGKELKSIVGKKGKYFIDVRTVGEYRGNHMKGFQNIPLNDLASKANQLDKNKEVIVICQSGMRSKQAAKVLKKLGFQQVINVSGGMNSL	not soluble
MVCKVCGQKAQVEMRSRGLALCREHYLDWFVKETERAIRRHRMLLPGERVLVAVSGGKDSLALWDVLSRLGYQAVGLHIELGIGEYSKRSLEVTQAFARERGLELLVVDLKEAYGFGVPELARLSGRVACSACGLSKRYIINQVAVEEGFRVVATGHNLDDEAAVLFGNLLNPQEETLSRQGPVLPEKPGLAARVKPFYRFSEREVLSYTLLRGIRYLHEECPNAKGAKSLLYKEALNLVERSMPGAKLRFLEGFLEKIRPRLDVGEEVALKECERCGYPTTGAVCAFCRMWDAVYRRAKKRRLLPEEAVFHPKAPVARG	soluble
MVDLSRRSMLTGSWRNASNGILPPWARETTYFLAHCLRCDACIQACEADILQRGAGGYPSVDFKRGECSFCYACAQACTESLFLPRHTRAWDLVFTLTENCLARQSVECHRCQDSCEPMAITFRPTLSGIYQPQLDSQACNGCGACVAICPVSAIKAENHHAH	not soluble
MVDNIEQQVYELVRPYAGTYLFNIKQVELTPEIDLDTDLSIDELEAEDLMNKFFEELNVERGNFRIETYFPNHPFSWHPFKKTEPVPVPDFTISMLIESAKAGKWLYD	not soluble
MVDSYDDSLDGEKSKTQVKRELHALVDLGERLTTLKADVLAKLPLTDALRKALAEAPKHTANIARKRHILFIGKLMRDQDQEAILVLLDQLDASTRQYNERFHNLERWRDRLIAGDDADLEKFVIEYPDADRQQLRSLIRQAQHEVARNKPPATSRKIFKYIRELDELQRGLR	not soluble
MVEADHPGKLFIGGLNRETNEKMLKAVFGKHGPISEVLLIKDRTSKSRGFAFITFENPADAKNAAKDMNGTSLHGKAIKVEQAKKPSFQSGGRRRPPASSRNRSPSGSLRSARGSSGGTRGWLPSHEGHLDDGGYTPDLKMSYSRGLIPVKRGPSSRSGGPPPKKSAPSAVARSNSWMGSQGPMSQRRENYGVPPRRATISSWRNDRMSTRHDGYATNDGNHPSCQETRDYAPPSRGYAYRDNGHSNRDEHSSRGYRNHRSSRETRDYAPPSRGHAYRDYGHSRRDESYSRGYRNHRSSRETREYAPPSRGHGYRDYGHSRRHESYSRGYRNHPSSRETRDYAPPHRDYAYRDYGHSSWDEHSSRGYSYHDGYGEALGRDHSEHLSGSSYRDALQRYGTSHGAPPARGPRMSYGGSTCHAYSNTRDRYGRSWESYSSCGDFHYCDREHVCRKDQRNPPSLGRVLPDPREAYGSSSYVASIVDGGESRSEKGDSSRY	soluble
MVEKIERKSLAEQVYDQIKAEITSGAWKIGERIPKEADLMTQFGISRNTLREAIRALAHIGLLETKQGDGTFVRNNSELHAIMQKRVRESSVQEILEMRHALDREAVILACERRTDEDLKMLKKYKQLCYLANKDNDVTAFVKADSALHLTIVKAAHNDLLLDMYVNILEEIQFSITSTTEMNPAVNKHNGHATLVSAIEKRDKEGAAHEVTEYITLFKQIAAKNGDNK	not soluble
MVEMTRIKHVAFLNPQGNFDPADSYWTEHPDFGGQLVYVKEVSLALAEMGVQVDIITRRIKDENWPEFSGEIDYYQETNKVRIVRIPFGGDKFLPKEELWPYLHEYVNKIINFYREEGKFPQVVTTHYGDGGLAGVLLKNIKGLPFTFTGHSLGAQKMEKLNVNTSNFKEMDERFKFHRRIIAERLTMSYADKIIVSTSQERFGQYSHDLYRGAVNVEDDDKFSVIPPGVNTRVFDGEYGDKIKAKITKYLERDLGSERMELPAIIASSRLDQKKNHYGLVEAYVQNKELQDKANLVLTLRGIENPFEDYSRAGQEEKEILGKIIELIDNNDCRGKVSMFPLNSQQELAGCYAYLASKGSVFALTSFYEPFGLAPVEAMASGLPAVVTRNGGPAEILDGGKYGVLVDPEDPEDIARGLLKAFESEETWSAYQEKGKQRVEERYTWQETARGYLEVIQEIADRKDEEDEGGSLNIPDYFTNPGASNDEKLLDTFNKLWKE	soluble
MVFGFLKGVRRRPPLNRACPPIPESKSNESIMSHASRISEHQKAAAAAAATSETTTGDLVIENRNVVDVLHRLDANSNIALPPSSNIRKSKEKKAKMSSTPRSPLMSMANSVKSKLTKITHLGRSSNESSGSSSNIKTSQSFSGIRQPKQIPKRIDQNANRVIKSSSMEVPSTSKVCIPQDPTPLIDDKIEEISEAGLISKSEMAPPKPKEHVCVKLEEDVLVVTKEFDERYPGQKRSASPDVPMVEESQTMSEVDQLPSEQVAETFSEDNVNELDNNANQKTPGPVRRIIQETTTTTITTTTFDSPIPIIEKMEVERPEEAEDVIVIEAPEPVQPPIPSPKKERFTSPERYILLVKTPEALRKHRTLTIGEKDPTEVDTEEKIQYTRLETVKFKEVKEKVKYEEPVPKEKFILTMKTPEAIRRHHTFTIRDKSPEEMNKITKITKSQSDVHVSKRAAKKLVKQASEPERRDLFEEKEDVVPEPKFVIVMKTPECLRRHHTFTIGDRPKSPDYPYIEEGEITEPIATIGPPADRRKKEEAKERKKREWEEYETPPKEKFILTTTTPLAIRKYQTFVVEPKDEKTALPQSASADAVMLAKKGKVQRKNVTSSIQQLSLDEPITSPSRKPVSPEPRHLFVMGGRRSTTPQEDRKVPEPPRNLKLDTDRSQSDHAELLEERKSTMSGDLTSPEEEIPMDTNLTPTTEEVMEAVIVSRRIEGLMTSPIEEEPEGLTSSIRDLSIRSLAKETERPAPVFTPPSPPKENPFHVMTVPKSTLTSSSESAMPMTSSSSSIRAKPNQLPIKKTIQVVDPMHIVELKPEHKSKKEALAAKSLRNAGKMLTPSFLRKEKKGPKKSLYAKTTSSGRQHISEKKEK	not soluble
MVFSDQQLFEKVVEILKPFDLSVVDYEEICDRMGESMRLGLQKSTNEKSSIKMFPSYVTKTPNGTETGNFLALDLGGTNYRVLSVTLEGKGKSPRIQERTYCIPAEKMSGSGTELFKYIAETLADFLENNGMKDKKFDLGFTFSFPCVQKGLTHATLVRWTKGFSADGVEGHNVAELLQTELDKRELNVKCVAVVNDTVGTLASCALEDPKCAVGLIVGTGTNVAYIEDSSKVELMDGVKEPEVVINTEWGAFGEKGELDCWRTQFDKSMDIDSLHPGKQLYEKMVSGMYLGELVRHIIVYLVEQKILFRGDLPERLKVRNSLLTRYLTDVERDPAHLLYNTHYMLTDDLHVPVVEPIDNRIVRYACEMVVKRAAYLAGAGIACILRRINRSEVTVGVDGSLYKFHPKFCERMTDMVDKLKPKNTRFCLRLSEDGSGKGAAAIAASCTRQN	soluble
MVGINNWSSNLDAYRILQEAQSLTEEPPHFDTAFPIEPESIAPPEHHNHRYVIGQEEHRVRRLAANRNKGRPSARAFGNARNNSTRN	not soluble
MVGWWPVGRRQAWHRFFPCHRRPALRCDAHSFFAPGKHIMAHRILTLGEITDGFDVVLSDVWGVLHNGVSAFPDAAVALHEARKAGKTVVLITNSPRPAPGVIAQLRVLGVPDEAYDRIITSGDVTRGLIAEGPKKVFLLGPERDMPLLEGLDVERVGEAEAQSVVCTGFFDDETETPEDYTEMLKGFIARKVPMICANPDLVVERGERIIPCAGAMAAYYEQLGGEVRIAGKPHAPIYEACLAAAKDVRGAFAKDRVLAIGDGMPTDVKGAIASGLNLLYISGGIHAAEYTLNGQTDEALLNAYLKGQGAAPGWWMPRLA	not soluble
MVHYYRLSLKSRQKAPKIVNSKYNSILNIALKNFRLCKKHKTKKPVQILALLQEIIPKSYFGTTTNLKRFYKVVEKILTQSSFECIHLSVLHKCYDYDAIPWLQNVEPNLRPKLLLKHNLFLLDNIVKPIIAFYYKPIKTLNGHEIKFIRKEEYISFESKVFHKLKKMKYLVEVQDEVKPRGVLNIIPKQDNFRAIVSIFPDSARKPFFKLLTSKIYKVLEEKYKTSGSLYTCWSEFTQKTQGQIYGIKVDIRDAYGNVKIPVLCKLIQSIPTHLLDSEKKNFIVDHISNQFVAFRRKIYKWNHGLLQGDPLSGCLCELYMAFMDRLYFSNLDKDAFIHRTVDDYFFCSPHPHKVYDFELLIKGVYQVNPTKTRTNLPTHRHPQDEIPYCGKIFNLTTRQVRTLYKLPPNYEIRHKFKLWNFNNQISDDNPARFLQKAMDFPFICNSFTKFEFNTVFNDQRTVFANFYDAMICVAYKFDAAMMALRTSFLVNDFGFIWLVLSSTVRAYASRAFKKIVTYKGGKYRKVTFQCLKSIAWRAFLAVLKRRTEIYKGLIDRIKSREKLTMKFHDGEVDASYFCKLPEKFRFVKINRKASI	soluble
MVIATIQAEDHSQQSGTQQETTTDTGGGKNVGYIDAGDWLSYAGTPVNIPSSGSYLIEYRVASQNGGGSLTFEEAGGAPVHGTIAIPATGGWQTWTTIQHTVNLSAGSHQFGIKANAGGWNLNWIRINKTH	soluble
MVIHKINKLIATIKTQGIRKAIVKVAAQFKFSYKYYFIYTYNLNSSSPAIAVNEAINTNENDYSIKWWSESDFCKNKTTYLEKRSDMTDSYIENWLPLGHQTVVARSLPNNDIIGDMWLAFDNFPFPSKSKSLRDWAIENHYGYAFMAFVQPSHRGKKILPCLMNEQLKLVKDNNKKGLMALIMPKSKSSHKSFSSMGFKRVGKLHVLQLFSNNHTWISV	not soluble
MVIKDPRITRFRKMLAQATNYEQWKAAALELDFLEGNAEWKEDFASDLYHYELIYDRLSNLKQYRQQNDFERLKRALREGLHHDLGNMGNPALYTRSRVGTKHLIEEYITQVCESLDYLCDHPVPGFPVYDKLQFFRDTLTSYGRPTLLLSGGASLGMFHFGVIKALWEKGLLPQVIAGSSIGAIIAGILGIHTDAEIPEMLVPESHNLKAWKWRGLLSAMRGTGLMDQDTLRRCLRENIGDYTFEEAYQRTGRSINISVSPVQAHQKARLLCGYTSPYLLVWSAALASAAVPGIFPPVTLMKKDLNGNSLPYMPRLKFVDGSVVSDLPIERLMHLYDVNFTIVSQTNPHVVPFLTDRGQDEKLSLTNLPSHLLKSEVQFHGQGVFDYLRKRVRPEILRQLSGQMYTIMAQRYSGDVTIAPNYSLRHFRRMLANPSPEYVREMILEGERATWPKISMIRSHARISKTLERCVRRLKQQNRRAAELEHHHHHH	not soluble
MVKEFNTQTELSVRLEALWAVLSKDFITVVPKVLPHIVKDVQLIEGDGGVGTILIFNFLPEVSPSYQREEITEFDESSHEIGLQVIEGGYLSQGLSYYKTTFKLSEIEEDKTLVNVKISYDHDSDIEEKVTPTKTSQSTLMYLRRLERYLSNGSA	soluble
MVKKMVIAVRKDLDMGKGKIAAQVAHAAVTCAIRSMKINRDVFNEWYDEGQRKIVVKVNDLDEIMEIKRMADSMGIVNEIVQDRGYTQVEPGTITCIGLGPDEEEKLDKITGKYKLL	soluble
